Assay results published in US10907134B2, “Mutated genes for the catalytic protein of oplophorus luciferase and use thereof” (JNC CORPORATION, priority 2013, dated 2021).
Positions count from the first letter of the chain named. Names may count otherwise.

B1: KAZ-A54I: KAZ with single amino acid substitution A54I, SEQ ID NO: 6 (protein)
chain: FTLADFVGDWQQTAGYNQDQVLEQGGLSSLFQALGVSVTPIQKVVLSGENGLKIDIHVIIPYEGLSGFQMGLIEMIFKVVYPVDDHHFKIILHYGTLVIDGVTPNMIDYFGRPYPGIAVFDGKQITVTGTLWNGNKIYDERLINPDGSLLFRVTINGVTGWRLCENILA
B2: KAZ: wild 19 kDa catalytic protein of Oplophorus luciferase (19kOLase), amino acid sequence SEQ ID NO: 2 (protein, listed as Oplophorus gracilirostris)
chain: B1 chain with I54A
B3: KAZ-V44I-A54I-Y138I: KAZ mutant with three amino acid substitutions V44I, A54I and Y138I, SEQ ID NO: 16 (protein)
chain: B1 chain with V44I, Y138I
B4: KAZ-Y138I: KAZ with single amino acid substitution Y138I, SEQ ID NO: 8 (protein)
chain: B1 chain with I54A, Y138I
B5: KAZ-V44I: KAZ with single amino acid substitution V44I, SEQ ID NO: 4 (protein)
chain: B1 chain with V44I, I54A
B6: KAZ-V44I-A54I: KAZ mutant with two amino acid substitutions V44I and A54I, SEQ ID NO: 10 (protein)
chain: B1 chain with V44I
B7: KAZ-V44I-Y138I: KAZ mutant with two amino acid substitutions V44I and Y138I, SEQ ID NO: 12 (protein)
chain: B1 chain with V44I, I54A, Y138I
B8: KAZ-A54I-Y138I: KAZ mutant with two amino acid substitutions A54I and Y138I, SEQ ID NO: 14 (protein)
chain: B1 chain with Y138I

Tests used:
[1] = Substrate specificities of KAZ mutants (ZZ-fused, crude enzyme), h-CTZ; format: biochemical; settings: 1 μg substrate; for Relative Luminescence Activity h-CTZ Int.: integrated for 60 seconds; for Relative Luminescence Activity h-CTZ Imax: maximum intensity of luminescence
Experimental: The coelenterazine analogues used for substrate specificity studies were synthesized by the methods described in publications. Specifically, bis-coelenterazine was synthesized by the method described in Nakamura et al. (1997) Tetrahedron Lett. 38: 6405-6406; furimazine by the method described in Hall et al. (2012) ACS Chem. Biol. […]; and, 6h-coelenterazine, f-coelenterazine and 6h-f-coelenterazine by the methods described in Inouye et al (2013) Biochem. Biophys. Res. Commun. 437: 23-28.
DTT was added to the crude enzyme solutions obtained in EXAMPLE 17 at a final concentration of 1 mM and the mixtures were allowed to stand in an ice water for more than 5 hours in the same manner as Example 8. A luminescence reaction was started by the addition of 1 μL each of the crude enzyme solutions to 100 μL of TE containing 1 μg of coelenterazine (manufactured by JNC Corp.) or its analogues. The luminescence activities were determined using a luminometer (manufactured by Atto Inc.: AB2200) for 60 seconds, and the maximum intensity of luminescence (Imax) was shown as relative luminescence activity.

CHO-K1 cells = assay: Luminescence activity of KAZ mutants expressed in animal culture cells with signal peptide of Gaussia luciferase for secretion; format: cell-based, Chinese hamster; settings: pcDNA3-GLsp- vectors; for Relative Luminescence Activity (Imax) (%) Cell Extracts / Relative Luminescence Activity (Imax) (%) Culture Medium: Table 5, CHO-K1, 48 hours, 0.5 μg coelenterazine; for Relative Luminescence Activity (Imax) (%) Cell Extracts: 5 μL cell extracts; for Relative Luminescence Activity (Imax) (%) Culture Medium: 5 μL culture medium; for Relative Luminescence Activity (%, Imax) Cell Extracts / Relative Luminescence Activity (%, Imax) Culture Medium: Table 11, CHO-K1, coelenterazine
How it was run: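 CHO-K1 cells were transfected with the KAZ mutant plasmid plus an internal standard vector. After 48 h, culture medium and sonicated cell extracts were collected. 5 μL of each was added to 0.5 μg coelenterazine in 30 mM Tris-HCl pH 7.6, 10 mM EDTA, and luminescence was read for 60 s, with maximum intensity (Imax) expressed as a percentage.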

| Molecule | Relative Luminescence Activity h-CTZ Int. [1] | Relative Luminescence Activity h-CTZ Imax [1] | Relative Luminescence Activity (Imax) (%) Cell Extracts (CHO-K1 cells) [%] | Relative Luminescence Activity (Imax) (%) Culture Medium (CHO-K1 cells) | Relative Luminescence Activity (%, Imax) Cell Extracts (CHO-K1 cells) [%] | Relative Luminescence Activity (%, Imax) Culture Medium (CHO-K1 cells) |
| --- | --- | --- | --- | --- | --- | --- |
| B1 | 6.9 | 11.8 | 2.4 | less than 0.01% | – | – |
| B2 | 0.7 | 1.1 | 0.1 | less than 0.01% | 0.3 | less than 0.01% |
| B3 | 33.2 | 83.1 | – | – | 16.2 | 1.7% |
| B4 | 3.0 | 3.9 | 1.0 | less than 0.01% | – | – |
| B5 | 2.2 | 3.7 | 0.7 | less than 0.01% | – | – |
| B6 | 8.7 | 17.9 | – | – | 13.9 | 0.07% |
| B7 | 9.7 | 19.1 | – | – | 11.2 | less than 0.01% |
| B8 | 12.9 | 24.2 | – | – | 16.0 | 0.03% |
